Experimental data taken from the supplement of paper PMC12783771.
± gives the standard deviation of the averaged measurements.

B1: library; numbered along this chain (parent)
chain: MNIQIGELAKRTACPVVTIRFYEQEGLLPPPGRSRGNFRLYGEEHVERLQFIRHCRSLDMPLSDVRTLLSYRKRPDQDCGEVNMLLDEHIRQVESRIGALLELKHHLVELREACSGARPAQSCGILQGLSDCVCDTRGTTAHPSD

Tests used:
[1] = variants of: B1; test: sfGFP reporter fluorescence (15 h) (µM FITC); higher = higher leak; settings: library round: Round 0; ligand: none
Method in brief: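 Linear PbrR templates were made by PCR, normalized to 5 nM with an Echo, and expressed in BL21 Star (DE3) PANOx-SP extract with the pPbrR-sfGFP reporter plasmid and 30 μg/mL GamS. Echo-assembled 1 μL reactions held 1 µM lead chloride, 30 µM zinc acetate or no metal and were incubated 15 hr at 30 °C. Endpoint sfGFP fluorescence was read on a Synergy Neo2 and expressed as µM FITC using standard curves. Up to three biological replicates were run.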

[2] = variants of: B1; test: sfGFP reporter fluorescence (15 h) (µM FITC); higher = stronger transcriptional activation; settings: library round: Round 0
Description: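 Cell-free (BL21 Star DE3 extract, PANOx-SP) biosensing: 1 µL Echo-assembled reactions with linear PbrR variant templates (5 nM) and pPbrR-sfGFP reporter, with 1 µM Pb (lead chloride), 30 µM Zn (zinc acetate) or no ligand; endpoint sfGFP fluorescence after 15 h at 30 °C, calibrated as µM FITC. Round 0 library (alanine scan, site saturation, combinatorial) of PbrR from Cupriavidus metallidurans; 2 biological replicates.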

| Variant | sfGFP reporter fluorescence [1] | sfGFP reporter fluorescence ([2]; ligand: 1 µM Pb) | sfGFP reporter fluorescence ([2]; ligand: 30 µM Zn) |
| --- | --- | --- | --- |
| L58E | 0.0619 ± 0.001 | 0.0625 ± 0.0013 | 0.064 ± 0.0018 |
| L58K | 0.0629 ± 0.0013 | 0.06908 ± 0.00026 | 0.0735 ± 0.0034 |
| L58W | 0.0629 ± 0.0034 | 0.0685 ± 0.0026 | 0.076 ± 0.0023 |
| L58M | 0.0583 | 0.0581 ± 0.00078 | 0.0748 ± 0.0015 |
| L58N | 0.05644 ± 0.00052 | 0.05791 ± 0.00052 | 0.0548 ± 0.0023 |
| L58H | 0.05901 ± 0.00052 | 0.0594 ± 0.0021 | 0.0656 ± 0.0036 |
| L58V | 0.0583 ± 0.001 | 0.0568 ± 0.0021 | 0.061 ± 0.0018 |
| L58Y | 0.0784 ± 0.0062 | 0.229 ± 0.011 | 0.606 ± 0.036 |
| L58R | 0.06139 ± 0.00026 | 0.0651 ± 0.0029 | 0.0662 ± 0.00078 |
| L58S | 0.05717 ± 0.00052 | 0.0586 | 0.0563 ± 0.0013 |
| L58T | 0.0588 ± 0.0018 | 0.05864 ± 0.00052 | 0.05644 ± 0.00052 |
| L58Q | 0.0596 ± 0.0018 | 0.05901 ± 0.00052 | 0.0711 ± 0.0021 |
| L58P | 0.0594 ± 0.0015 | 0.0601 ± 0.001 | 0.0605 ± 0.001 |
| L58I | 0.05443 ± 0.00026 | 0.0546 ± 0.001 | 0.05864 ± 0.00052 |
| L58C | 0.05846 ± 0.00026 | 0.05772 ± 0.00026 | 0.06121 ± 0.00052 |
| L58F | 0.0592 ± 0.0018 | 0.0731 ± 0.0013 | 0.261 ± 0.027 |
| L58A | 0.0601 ± 0.001 | 0.05681 ± 0.00052 | 0.0563 ± 0.0049 |
| L58D | 0.0599 ± 0.0023 | 0.0623 | 0.0608 ± 0.0015 |
| L58G | 0.0548 ± 0.00078 | 0.0548 ± 0.0013 | 0.052 ± 0.001 |
| R56A | 0.0616 | 0.0616 ± 0.0026 | 0.1308 ± 0.00052 |
| M60L D64K K104V | 2.02 ± 0.17 | 4.2 ± 0.4 | 4.63 ± 0.11 |
| M60L P61N G128I | 0.436 ± 0.043 | 1.55 ± 0.032 | 3.7563 ± 0.0021 |

| Variant | sfGFP reporter fluorescence [1] | sfGFP reporter fluorescence ([2]; ligand: 1 µM Pb) | sfGFP reporter fluorescence ([2]; ligand: 30 µM Zn) |
| --- | --- | --- | --- |
| M60L P61N G128M | 0.822 ± 0.13 | 1.91 ± 0.38 | 3.32 ± 0.64 |
| M60L P61N D64K K104V | 0.366 ± 0.0044 | 1.11 ± 0.035 | 3.03 ± 0.15 |
| D64K K104V G128M | 1.36 ± 0.059 | 2.78 ± 0.079 | 4.45 ± 0.11 |
| D64K K104V G128I | 0.711 ± 0.092 | 1.75 ± 0.096 | 4.36 ± 0.25 |
| P61N D64K | 0.232 ± 0.0052 | 0.762 ± 0.12 | 3.05 ± 0.076 |
| M60V | 0.0715 ± 0.0015 | 0.1459 ± 0.001 | 1.05 ± 0.012 |
| M60C | 0.06029 ± 0.00026 | 0.06304 ± 0.00052 | 0.06615 ± 0.00026 |
| M60T | 0.0601 ± 0.001 | 0.0621 ± 0.00078 | 0.0645 ± 0.001 |
| M60N | 0.0616 ± 0.001 | 0.0607 ± 0.0018 | 0.061 ± 0.0013 |
| M60H | 0.0623 ± 0.0015 | 0.0614 ± 0.00078 | 0.0638 ± 0.0015 |
| M60K | 0.0605 ± 0.001 | 0.061 ± 0.0018 | 0.0625 ± 0.0029 |
| M60Q | 0.0603 ± 0.00078 | 0.0588 ± 0.0018 | 0.0614 ± 0.0013 |
| M60G | 0.0561 ± 0.0015 | 0.05772 ± 0.00026 | 0.0588 ± 0.0013 |
| M60W | 0.135 ± 0.0096 | 0.384 ± 0.026 | 0.926 ± 0.01 |
| M60E | 0.107 ± 0.00052 | 0.463 ± 0.039 | 1.67 ± 0.012 |
| M60R | 0.0614 ± 0.0034 | 0.0612 ± 0.001 | 0.0619 ± 0.0015 |
| M60A | 0.0643 ± 0.0029 | 0.0619 ± 0.001 | 0.0713 ± 0.007 |
| M60D | 0.0616 ± 0.001 | 0.0619 ± 0.0015 | 0.063 ± 0.0015 |
| M60Y | 0.0621 ± 0.0013 | 0.0662 ± 0.0013 | 0.12 ± 0.00078 |
| M60F | 1.94 ± 0.16 | 2.94 ± 0.1 | 2.92 ± 0.028 |
| M60I | 0.12 ± 0.0029 | 0.319 ± 0.03 | 2.58 ± 0.063 |
| M60L | 0.1063 ± 0.00052 | 0.295 ± 0.035 | 2.8 ± 0.031 |

| Variant | sfGFP reporter fluorescence [1] | sfGFP reporter fluorescence ([2]; ligand: 1 µM Pb) | sfGFP reporter fluorescence ([2]; ligand: 30 µM Zn) |
| --- | --- | --- | --- |
| M60P | 0.0605 | 0.05974 ± 0.00052 | 0.05516 ± 0.00026 |
| M60S | 0.0601 | 0.0608 ± 0.001 | 0.0592 ± 0.00078 |
| M60L K104V L107C G128M | 2.296 ± 0.0044 | 4.53 ± 0.18 | 3.641 ± 0.033 |
| M60L K104V L107C G128I | 1.223 ± 0.006 | 3.59 ± 0.22 | 3.12 ± 0.6 |
| M60L D64K | 0.916 ± 0.074 | 1.99 ± 0.24 | 4.629 ± 0.03 |
| P61N L107C G128I | 1.6 ± 0.35 | 2.91 ± 0.12 | 3.99 ± 0.4 |
| P61N L107C G128M | 3.31 ± 0.13 | 4.37 ± 0.48 | 5.17 ± 0.11 |
| M60L D64K G128M | 3.44 ± 0.06 | 4.33 ± 0.25 | 4.46 ± 0.12 |
| M60L D64K G128I | 2.06 ± 0.074 | 3.47 ± 0.32 | 4.32 ± 0.22 |
| M60L P61N K104V L107C | 0.535 ± 0.018 | 1.66 ± 1.4 | 3.35 ± 0.1 |
| P61N L107C | 1.34 ± 0.084 | 2.4 ± 0.077 | 3.92 ± 0.019 |
| P61N K104V | 0.121 ± 0.016 | 0.385 ± 0.007 | 1.77 ± 0.47 |
| D64A L68S | 0.0623 ± 0.0021 | 0.0597 ± 0.0026 | 0.0803 ± 0.0036 |
| M60L D64K L107C | 5.66 ± 0.2 | 5.25 ± 0.066 | 5.27 ± 0.24 |
| P61N K104V G128I | 0.133 ± 0.0086 | 0.341 ± 0.0067 | 1.53 ± 0.083 |
| P61N K104V G128M | 0.395 ± 0.015 | 1.034 ± 0.006 | 3.13 ± 0.069 |
| M60L P61N K104V | 0.153 ± 0.0062 | 0.413 ± 0.017 | 1.56 ± 0.039 |
| D64K K104V L107C | 2.05 ± 0.034 | 4.21 ± 0.2 | 4.1 ± 0.055 |
| M60L P61N D64K | 0.611 ± 0.025 | 1.74 ± 0.19 | 3.74 ± 0.11 |
| P61N D64K K104V L107C | 0.676 ± 0.011 | 2.12 ± 0.066 | 2.74 ± 0.35 |
| M60L P61N D64K L107C | 3.0399 ± 0.0023 | 4.3 ± 0.33 | 4.24 ± 0.28 |
| M60L D64K K104V G128M | 3.37 ± 0.19 | 4.36 ± 0.31 | 3.8 ± 0.24 |

| Variant | sfGFP reporter fluorescence [1] | sfGFP reporter fluorescence ([2]; ligand: 1 µM Pb) | sfGFP reporter fluorescence ([2]; ligand: 30 µM Zn) |
| --- | --- | --- | --- |
| M60L D64K K104V G128I | 2.23 ± 0.091 | 3.3 ± 0.69 | 4.17 ± 0.28 |
| M60L L107C | 1.01 ± 0.029 | 1.43 ± 0.057 | 3.93 ± 0.055 |
| S57A | 0.059 ± 0.0015 | 0.0575 ± 0.001 | 0.184 ± 0.011 |
| D64K L107C G128I | 4.71 ± 0.58 | 4.78 ± 0.6 | 4.48 ± 0.43 |
| D64K L107C G128M | 6.27 ± 0.28 | 5.91 ± 0.52 | 4.866 ± 0.045 |
| M60L P61N L107C G128M | 3.38 ± 0.74 | 4.14 ± 0.57 | 5.5 ± 0.2 |
| M60L P61N L107C G128I | 1.87 ± 0.42 | 3.58 ± 0.081 | 4.97 ± 0.23 |
| P61N D64K G128M | 1.01 ± 0.069 | 2.17 ± 0.97 | 4.15 ± 0.24 |
| P61N D64K G128I | 0.452 ± 0.022 | 1.46 ± 0.23 | 3.51 ± 0.073 |
| S63A | 0.0607 ± 0.00078 | 0.0733 ± 0.0026 | 0.725 ± 0.037 |
| M60L K104V | 0.255 ± 0.0057 | 1.1 ± 0.067 | 3.17 ± 0.1 |
| D64C | 0.0848 ± 0.032 | 0.335 ± 0.072 | 2.45 ± 0.3 |
| D64F | 0.267 ± 0.014 | 1.01 ± 0.054 | 3.86 ± 0.28 |
| D64H | 0.0682 ± 0.001 | 0.12 ± 0.0054 | 1.81 ± 0.088 |
| D64P | 0.0607 ± 0.00078 | 0.076 ± 0.00078 | 0.162 ± 0.0067 |
| D64G | 0.06322 ± 0.00026 | 0.121 ± 0.0054 | 1.26 ± 0.049 |
| D64A | 0.0874 ± 0.0065 | 0.158 ± 0.049 | 2.22 ± 0.24 |
| D64E | 0.0581 ± 0.0018 | 0.061 ± 0.0013 | 0.1552 ± 0.00078 |
| D64N | 0.06652 ± 0.00026 | 0.137 ± 0.006 | 1.64 ± 0.084 |
| D64Q | 0.0579 ± 0.001 | 0.0808 ± 0.0029 | 0.781 ± 0.044 |
| D64L | 2.28 ± 0.17 | 3.29 ± 0.26 | 4.32 ± 0.14 |
| D64M | 2.97 ± 0.48 | 3.46 ± 0.68 | 4.15 ± 0.31 |
